Results published in US20120107932A1, “PRRS-VIRUS RECEPTOR AND ITS INHIBITOR” (priority 2009, published 2012).
Blank lines part the entries; values can stand above or below the substance they belong to.

Columns and labels:
[1] = target: PRRS virus (PRRSV); assay: cell-based or functional assay
[2] = target: non-muscle myosin heavy chain II-A (NMHC II-A) protein; assay: indirect ELISA, antigen coated 200 ng/well, serum dilution 10^-5; control of the anti-polypeptide (Seq ID No: 4) group
[3] = target: NMHC II-A artificial polypeptide (Seq ID No: 4); assay: as above
[4] = target: non-muscle myosin heavy chain II-A (NMHC II-A) protein; assay: indirect ELISA, antigen coated 200 ng/well, serum dilution 10^-3; control of the anti-polypeptide (Seq ID No: 3) group
[5] = target: NMHC II-A artificial polypeptide (Seq ID No: 3); assay: as above
[6] = target: non-muscle myosin heavy chain II-A (NMHC II-A) protein; assay: indirect ELISA, antigen coated 200 ng/well, serum dilution 10^-5; control of the anti-polypeptide (Seq ID No: 3) group
[7] = target: NMHC II-A artificial polypeptide (Seq ID No: 3); assay: as above
[8] = target: non-muscle myosin heavy chain II-A (NMHC II-A) protein; assay: indirect ELISA, antigen coated 200 ng/well, serum dilution 10^-5; control of the anti-polypeptide (Seq ID No: 2) group
[9] = target: NMHC II-A artificial polypeptide (Seq ID No: 2); assay: as above
[10] = target: non-muscle myosin heavy chain II-A (NMHC II-A) protein; assay: indirect ELISA, antigen coated 200 ng/well, serum dilution 10^-2; control of the anti-polypeptide (Seq ID No: 3) group
[11] = target: NMHC II-A artificial polypeptide (Seq ID No: 3); assay: as above
[12] = target: non-muscle myosin heavy chain II-A (NMHC II-A) protein; assay: indirect ELISA, antigen coated 200 ng/well, serum dilution 10^-4; control of the anti-polypeptide (Seq ID No: 2) group
[13] = target: NMHC II-A artificial polypeptide (Seq ID No: 2); assay: as above
[14] = target: NMHC II-A artificial polypeptide (Seq ID No: 3); assay: indirect ELISA, antigen coated 200 ng/well, serum dilution 10^-4; control of the anti-polypeptide (Seq ID No: 3) group
[15] = target: non-muscle myosin heavy chain II-A (NMHC II-A) protein; assay: indirect ELISA, antigen coated 200 ng/well, serum dilution 10^-3; control of the anti-polypeptide (Seq ID No: 2) group
[16] = target: NMHC II-A artificial polypeptide (Seq ID No: 2); assay: as above
[17] = target: non-muscle myosin heavy chain II-A (NMHC II-A) protein; assay: indirect ELISA, antigen coated 200 ng/well, serum dilution 10^-2; control of the anti-polypeptide (Seq ID No: 2) group
[18] = target: NMHC II-A artificial polypeptide (Seq ID No: 2); assay: as above
[19] = target: non-muscle myosin heavy chain II-A (NMHC II-A) protein; assay: indirect ELISA, antigen coated 200 ng/well, serum dilution 10^-4; control of the anti-polypeptide (Seq ID No: 4) group
[20] = target: NMHC II-A artificial polypeptide (Seq ID No: 4); assay: as above
[21] = target: non-muscle myosin heavy chain II-A (NMHC II-A) protein; assay: indirect ELISA, antigen coated 200 ng/well, serum dilution 10^-3; control of the anti-polypeptide (Seq ID No: 4) group
[22] = target: NMHC II-A artificial polypeptide (Seq ID No: 4); assay: as above
[23] = target: non-muscle myosin heavy chain II-A (NMHC II-A) protein; assay: indirect ELISA, antigen coated 200 ng/well, serum dilution 10^-2; control of the anti-polypeptide (Seq ID No: 4) group
[24] = target: NMHC II-A artificial polypeptide (Seq ID No: 4); assay: as above

Substance: non-muscle myosin heavy chain II-A (NMHC II-A) protein (receptor)
CPE caused by PRRSV on Marc-145 and PAM cells, blocker at 1 µg/well ('+' means CPE in 25% cells) (% cells with CPE) [1]: 25

OD value (450 nm) [2]: 0.07 OD | OD value (450 nm) [3]: 0.09 OD | OD value (450 nm) [4]: 0.11 OD | OD value (450 nm) [5]: 0.13 OD | OD value (450 nm) [6]: 0.07 OD | OD value (450 nm) [7]: 0.08 OD | OD value (450 nm) [8]: 0.08 OD | OD value (450 nm) [9]: 0.07 OD | OD value (450 nm) [10]: 0.12 OD | OD value (450 nm) [11]: 0.11 OD | OD value (450 nm) [12]: 0.1 OD | OD value (450 nm) [13]: 0.08 OD | OD value (450 nm) [14]: 0.09 OD | OD value (450 nm) [15]: 0.1 OD | OD value (450 nm) [16]: 0.11 OD | OD value (450 nm) [17]: 0.13 OD | OD value (450 nm) [18]: 0.12 OD | OD value (450 nm) [19]: 0.08 OD | OD value (450 nm) [20]: 0.1 OD | OD value (450 nm) [21]: 0.11 OD | OD value (450 nm) [22]: 0.13 OD | OD value (450 nm) [23]: 0.14 OD | OD value (450 nm) [24]: 0.15 OD
Substance: Negative control sera (mouse serum before immunization) (antibody)
